Results as given in PMC3048872, “The Regulatory Subunit of PKA-I Remains Partially Structured and Undergoes β-Aggregation upon Thermal Denaturation” (PLoS ONE, 2011).

Target: the molecule itself
Test: dynamic light scattering; thermally denatured RIα(92–381), soluble aggregates; 10 mM K-phosphate buffer, 50 mM KCl, pH 7.5; measured at 22 and 60°C

B1: human RIα(92–381), regulatory subunit RIα of cAMP-dependent protein kinase (PKA), truncated form with the tandem CNB domains A and B (domain or fragment, UniProt P10644 92-381, looked up)
chain: KGRRRRGAISAEVYTEEDAASYVRKVIPKDYKTMAALAKAIEKNVLFSHLDDNERSDIFDAMFSVSFIAGETVIQQGDEGDNFYVIDQGETDVYVNNEWATSVGEGGSFGELALIYGTPRAATVKAKTNVKLWGIDRDSYRRILMGSTLRKRKMYEEFLSKVSILESLDKWERLTVADALEPVQFEDGQKIVVQGEPGDEFFIILEGSAAVLQRRSENEEFVEVGRLGPSDYFGEIALLMNRPRAATVVARGPLKCVKLDRPRFERVLGPCSDILKRNIQQYNSFVSLSV
notes: cAMP-dependent protein kinase type I-alpha regulatory subunit (RIα), human, residues 92-381, numbering according to Swiss-Prot P10644; lacks the N-terminal docking/dimerization domain; In the aggregation experiments the protein was thermally denatured; the self-association is that of the partly unfolded, non-native state; also called apo-RIα(92–381); wt RIα(92–381); source: E. coli BL21 (DE3) …
B1: binds.
